Here are results for ten molecules from patent US20110039780A1 (Pfizer, published 2011).

For assay [1], the target named is T1, α-thrombin (UniProt P00734 328-363; P00734 364-622). Nature of the assay: Biacore assay. As for the experimental part: (§1) The binding abilities of GPIbα-290/2V-Ig and GPIbα-290-2V/FFF-Ig to vWF and a-thrombin were evaluated in vitro using a Biacore assay.
On the technique in general: In SPR one partner is held on a chip, and binding of the other changes the refractive index at the surface.

The target of assay [2] is T1, α-thrombin. Nature of the assay: SPR (BiaCore).
Assay [3] concerns the target T2, intact von Willebrand factor (UniProt P04275 764-2813, limits assumed).
T2 construct: also called vWF; intact vWF
Nature of the assay: SPR (BiaCore); fully sulfated isoform.

The target in assay [4] is T2, intact von Willebrand factor. Nature of the assay: SPR (BiaCore); 6 sulfated (fully sulfated).
Assay [5] shares this target. Nature of the assay: SPR (BiaCore); non-sulfated isoform.
For assay [6] the target is unchanged. Nature of the assay: SPR (BiaCore); 0 sulfated (unsulfated).
The target is the same in assay [7]. Nature of the assay: binding constant; method not stated in Example 3.
For assay [8], the target named is T3, vWF A1 domain (UniProt P04275 1261-1468, limits assumed).
T3 construct: domain: A1; also called vWF A1 fragment
Nature of the assay: binding constant; method not stated in Example 3.

For assay [9], the target named is T3, vWF A1 domain. Nature of the assay: Biacore assay.
For assay [10], the target named is T3, vWF A1 domain. Nature of the assay: Biacore assay. As for the experimental part:
as §1
This is another data set of the same source.

Changes are numbered by the printed parent chain. Names may count otherwise.

B1: GPIbα-IgG1Fc fusion protein with a wild-type human GPIbα sequence (Fc fusion)
chain: HPICEVSKVASHLEVNCDKRNLTALPPDLPKDTTILHLSENLLYTFSLATLMPYTRLTQLNLDRCELTKLQVDGTLPVLGTLDLSHNQLQSLPLLGQTLPALTVLDVSFNRLTSLPLGALRGLGELQELYLKGNELKTLPPGLLTPTPKLEKLSLANNNLTELPAGLLNGLENLDTLLLQENSLYTIPKGFFGSHLLPFAFLHGNPWLCNCEILYFRRWLQDNAENVYVWKQGVDVKAMTSNVASVQCDNSDKFPVYKYPGKGCPTLGDEGDTDLYDYYPEEDTEGDKVR
modifications: tyrosines 276, 278, 279 can be sulfated; sulfation state of the tested material not stated
notes: Made in CHO cells; dimerized forms were isolated; also called WT; GPIb-Ig WT; not shown: IgG1 Fc
For orientation: Kd means the free concentration of one partner at which half of the binding sites on the other are occupied at equilibrium, for simple one-to-one binding. In the case of B1, in assay [1], binding was put at a Kd of 0.76 µM.

B2: GPIbα-IgG1Fc fusion protein 2V (G233V M239V), fully sulfated isoform (Fc fusion)
chain: B1 chain with G233V, M239V
modifications: sulfotyrosine at 276, 278 and 279 (fully sulfated: sulfation state 6 per dimer)
notes: also called 2V 6 sulfated; GP Ib-Ig2V fully sulfated isoform; not shown: IgG1 Fc
Take B2: in assay [2], the “fold higher binding affinity than the unsulfated isoform” value was roughly 80 fold. The Kd is 0.004 µM in assay [3] and 0.0034 to 0.015 µM in assay [4].

B3: GPIbα-IgG1Fc fusion protein 2V (G233V M239V), non-sulfated isoform (Fc fusion)
chain: B1 chain with G233V, M239V
modifications: tyrosines 276, 278, 279 not sulfated (sulfation state 0)
notes: also called 2V 0 sulfated; GP Ib-Ig2V unsulfated isoform; not shown: IgG1 Fc
With B3, the Kd is 0.012 µM in [5] and 0.0034 to 0.015 µM in assay [6].

B4: GPIbα-IgG1Fc fusion protein with the M239V (1V) substitution (Fc fusion)
chain: B1 chain with M239V
modifications: tyrosines 276, 278, 279 can be sulfated; sulfation state not stated
notes: also called GP Ibα-Ig239V; not shown: IgG1 Fc
Consider B4, for which the Ka in assay [7] stood at 7.7e+07 M⁻¹.

B5: GPIbα fusion protein variant 3V (G233V K237V M239V) (Fc fusion, not shown: large carriers)
chain: B1 chain with G233V, K237V, M239V
Turning to B5, the Ka was found to be 1.5e+09 M⁻¹ in [8] and 1.7e+09 M⁻¹ in assay [7].

B6: GPIbα-IgG1Fc fusion protein 1V (M239V), fully sulfated isoform (Fc fusion)
chain: B1 chain with M239V
modifications: sulfotyrosine at 276, 278 and 279 (fully sulfated: sulfation state 6 per dimer)
notes: also called 1V 6 sulfated; GP Ibα-Ig239V fully sulfated isoform; not shown: IgG1 Fc
Turning to B6, in assay [2], the “fold higher binding affinity than the unsulfated isoform” value was roughly 80 fold. For the same molecule, the values for the Kd in [3] and in assay [4] were 0.119 µM and 0.113 to 0.521 µM, respectively.

B7: GPIbα fusion protein variant 3V/C65S (Fc fusion, not shown: large carriers)
chain: B1 chain with C65S, G233V, K237V, M239V
notes: also called 3V/C-S
As for B7, the Ka in assay [8] was 1.5e+09 M⁻¹; in assay [7] it was 1.7e+09 M⁻¹.

B8: GPIbα-IgG1Fc fusion protein 1V (M239V), non-sulfated isoform (Fc fusion)
chain: B1 chain with M239V
modifications: tyrosines 276, 278, 279 not sulfated (sulfation state 0)
notes: also called 1V 0 sulfated; GP Ibα-Ig239V unsulfated isoform; not shown: IgG1 Fc
On to B8, for which the Kd was 0.284 µM in assay [5] and 0.113 to 0.521 µM in assay [6].

B9: GPIb-290/2V/FFF-Ig (GPIb-290/2V-Ig with Tyr-276, 278, 279 changed to phenylalanine) (Fc fusion)
chain: B1 chain with G233V, M239V, Y276F, Y278F, Y279F
notes: Non-sulfated chimera; also called GPIbα-290/2V/FFF-Ig; GPIbα-290-2V/FFF-Ig; not shown: human IgG1 Fc domain
Turning to B9, the “fold decrease in binding against GPIb-290/2V-Ig” value in assay [9] is roughly 3 fold. The Kd came out at 0.0154 µM in assay [10] and 35.8 µM in assay [1]. Besides, the Ka turned out to be 9.1e+07 M⁻¹ in [8] and 2.4e+08 M⁻¹ in assay [7].

B10: GPIb-290/2V-Ig (N-terminal 290 amino acids of GPIbα with G233V M239V fused to a human IgG1 Fc domain) (Fc fusion)
chain: B1 chain with G233V, M239V
modifications: sulfated tyrosines at 276, 278, 279 (extent not stated)
notes: also called GPIb2V-Ig; GP Ib-Ig2V; not shown: human IgG1 Fc domain
Take B10: the Kd in [10] worked out at 0.005 µM; in [1], 0.63 µM. Further, the Ka was 1.9e+08 M⁻¹ in assay [8] and 5.6e+08 M⁻¹ in [7].
